The record followed here is PMC5450233.

To fix the notation:
B1: GST–SKIP(1-310) [not stated] / HA–KHC [rat] (parent)
chain 1: MEPGEVKDRILENISLSVKKLQSYFAACEDEIPAIRNHDKVLQRLCEHLDHALLYGLQDLSSGYWVLVVHFTRREAIKQIEVLQHVATNLGRSRAWLYLALNENSLESYLRLFQENLGLLHKYYVKNALVCSHDHLTLFLTLVSGLEFIRFELDLDAPYLDLAPYMPDYYKPQYLLDFEDRLPSSVHGSDSLSLNSFNSVTSTNLEWDDSAIAPSSEDYDFGDVFPAVPSVPSTDWEDGDLTDTVSGPRSTASDLTSSKASTRSPTQRQNPFNEEPAETVSSSDTTPVHTTSQEKEEAQALDPPDACTEL
chain 2: MADPAECSIKVMCRFRPLNEAEILRGDKFIPKFKGEETVVIGQGKPYVFDRVLPPNTTQEQVYNACAKQIVKDVLEGYNGTIFAYGQTSSGKTHTMEGKLHDPQLMGIIPRIAHDIFDHIYSMDENLEFHIKVSYFEIYLDKIRDLLDVSKTNLAVHEDKNRVPYVKGCTERFVSSPEEVMDVIDEGKANRHVAVTNMNEHSSRSHSIFLINIKQENVETEKKLSGKLYLVDLAGSEKVSKTGAEGAVLDEAKNINKSLSALGNVISALAEGTKTHVPYRDSKMTRILQDSLGGNCRTTIVICCSPSVFNEAETKSTLMFGQRAKTIKNTVSVNLELTAEEWKKKYEKEKEKNKALKSVIQHLEVELNRWRNGEAVPEDEQISAKDQKNLEPCDNTPIIDNITPVVDGISAEKEKYDEEITSLYRQLDDKDDEINQQSQLAEKLKQQMLDQDELLASTRRDYEKIQEELTRLQIENEAAKDEVKEVLQALEELAVNYDQKSQEVEDKTRANEQLTDELAQKTTTLTTTQRELSQLQELSNHQKKRATEILNLLLKDLGEIGGIIGTNDVKTLADVNGVIEEEFTMARLYISKMKSEVKSLVNRSKQLESAQTDSNRKMNASERELAACQLLISQHEAKIKSLTDYMQNMEQKRRQLEESQDSLSEELAKLRAQEKMHEVSFQDKEKEHLTRLQDAEEVKKALEQQMESHREAHQKQLSRLRDEIEEKQRIIDEIRDLNQKLQLEQERLSSDYNKLKIEDQEREVKLEKLLLLNDKREQAREDLKGLEETVSRELQTLHNLRKLFVQDLTTRVKKSVELDSDDGGGSAAQKQKISFLENNLEQLTKVHKQLVRDNADLRCELPKLEKRLRATAERVKALESALKEAKENAMRDRKRYQQEVDRIKEAVRAKNMARRAHSAQIAKPIRPGHYPASSPTAVHAVRGGGGSSNSTHYQK

In this experiment the parent is B1. Kind of experiment: GST pull-down, immunoblot (IB: HA) quantified. Particulars: with HA–KHC [rat]; lysates of 293T cells co-expressing HA-KHC and HA-KLC2 (kinesin-1 tetramer); three independent experiments; parent: 1; read off a plot. On the technique in general: A western blot detects proteins with antibodies after separation by electrophoresis.
Consider chain 1 E217A D218A Y219A, for which the ratio to parent worked out at 0.5.
As for chain 1 W236A E237A, the ratio to parent is 0.97.
Take chain 1 D220A F221A G222A: the ratio to parent was 0.38.
In the case of chain 1 D238A G239A D240A, the ratio to parent worked out at 0.98.
